# Test results from US20190169232A1.
# pKd: −log10 of the molar value.
# Legend:
# [1] = target: C1q purified from pooled normal human sera (human) (UniProt P02746); assay: SPR kinetics, C1q immobilised on a CM5 chip, HMGB1 redox form as analyte in a concentration series, 1:1 fit
# [2] = target: LAIR-1 on human monocytes (human) (UniProt Q6GTX8); assay: co-immunoprecipitation from human monocytes, IP anti-LAIR-1, blot anti-SHP-1; cells treated with C1q alone
# [3] = target: LAIR-1 on human monocytes (human) (UniProt Q6GTX8); assay: co-immunoprecipitation from human monocytes, IP anti-LAIR-1, blot anti-SHP-1; cells without C1q and without HMGB1
# [4] = target: LAIR-1 on human monocytes (human) (UniProt Q6GTX8); assay: co-immunoprecipitation from human monocytes, IP anti-LAIR-1, blot anti-SHP-1; cells treated with HMGB1 alone
# [5] = target: LAIR-1 on human monocytes (human) (UniProt Q6GTX8); assay: co-immunoprecipitation from human monocytes, IP anti-LAIR-1, blot anti-SHP-1; cells treated with C1q and HMGB1
# LAIR-1 on human monocytes (human), sequence (Q6GTX8 22-287): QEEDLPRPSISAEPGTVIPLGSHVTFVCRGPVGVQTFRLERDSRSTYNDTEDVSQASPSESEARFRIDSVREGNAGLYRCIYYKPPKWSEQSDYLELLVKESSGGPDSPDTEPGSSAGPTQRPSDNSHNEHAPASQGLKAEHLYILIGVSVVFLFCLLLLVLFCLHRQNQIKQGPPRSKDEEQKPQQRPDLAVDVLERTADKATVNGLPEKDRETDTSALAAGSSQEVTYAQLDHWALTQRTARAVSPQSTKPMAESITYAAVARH
# Oxidized HMGB1 (ligand), sequence (P09429 whole entry): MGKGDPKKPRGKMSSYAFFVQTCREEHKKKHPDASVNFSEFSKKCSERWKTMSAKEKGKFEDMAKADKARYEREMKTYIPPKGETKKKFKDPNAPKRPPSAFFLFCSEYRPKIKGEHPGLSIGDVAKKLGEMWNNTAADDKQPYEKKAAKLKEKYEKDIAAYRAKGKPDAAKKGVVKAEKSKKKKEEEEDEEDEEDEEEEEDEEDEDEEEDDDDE
# C1q purified from pooled normal human sera (human), sequence (chain, as listed by the source, chain 1 of 3): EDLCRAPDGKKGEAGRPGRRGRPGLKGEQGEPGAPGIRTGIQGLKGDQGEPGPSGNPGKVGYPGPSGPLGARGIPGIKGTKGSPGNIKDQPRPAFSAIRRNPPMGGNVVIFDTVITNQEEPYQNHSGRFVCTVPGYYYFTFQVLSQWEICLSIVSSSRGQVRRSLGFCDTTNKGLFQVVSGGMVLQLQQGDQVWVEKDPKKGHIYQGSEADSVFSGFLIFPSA
# C1q purified from pooled normal human sera (human), sequence (P02746 28-253, chain 2 of 3): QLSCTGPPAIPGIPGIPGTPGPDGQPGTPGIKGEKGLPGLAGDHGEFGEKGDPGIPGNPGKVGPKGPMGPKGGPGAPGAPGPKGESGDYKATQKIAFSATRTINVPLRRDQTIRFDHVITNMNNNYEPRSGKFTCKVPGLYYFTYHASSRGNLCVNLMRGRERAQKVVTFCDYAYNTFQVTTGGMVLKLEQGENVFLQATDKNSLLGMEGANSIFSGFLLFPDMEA
# C1q purified from pooled normal human sera (human), sequence (P02747 29-245, chain 3 of 3): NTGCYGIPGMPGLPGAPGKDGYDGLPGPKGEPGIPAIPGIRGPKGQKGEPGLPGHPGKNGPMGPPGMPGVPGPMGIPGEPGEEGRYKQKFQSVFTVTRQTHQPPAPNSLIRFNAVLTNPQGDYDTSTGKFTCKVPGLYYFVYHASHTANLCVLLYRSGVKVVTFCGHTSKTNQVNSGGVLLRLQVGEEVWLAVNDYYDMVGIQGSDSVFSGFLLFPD
pKd [1],signal intensity ratio (number under the SHP-1 blot) [2],signal intensity ratio (number under the SHP-1 blot) [3],signal intensity ratio (number under the SHP-1 blot) [4],signal intensity ratio (number under the SHP-1 blot) [5],Substance
5.81,–,–,–,–,Oxidized HMGB1 (ligand)
–,2.6,1,0.7,4.4,SHP-1 (from UniProt P29350 1-595)
